The results in this text go back to patent publication US9688764B2, “Methods of treating breast cancer by administering anti-human prolactin receptor (PRLR) antibodies” (REGENERON PHARMACEUTICALS, INC., priority 2013, dated 2017).

Positions count from the first letter of the chain named. Bounds are passed on as bounds.

The term Kd denotes the free concentration of one partner at which half of the binding sites on the other are occupied at equilibrium, for simple one-to-one binding. High values mean a looser complex, low ones a tighter complex. The term IC50 denotes the midpoint of a concentration-inhibition curve. High values mean a need for much substance, low ones inhibition by little substance.

B1: H1H6774P: anti-PRLR antibody, human IgG1 Fc; HCVR/LCVR SEQ ID NOs 34/42 (antibody, V domains shown)
VH: EVQLVESGGGLAQPGGSLRLSCVASGFTFSTYWMSWVRQAPGKGLDWVGNIKQDGSEQNYVDSVRGRFTISRDNAKNSLFLQMNSLRAEDTGVYYCATLLTKGDYWGQGTLVTVSS
VL: DIQMTQSPSSLSASVGDSVTITCRASQDISNYLDWFQQKPGKAPKSLIYAASILQGGVPSRFSGSGYGTDFTLTISSLQPEDFATYYCRQYKTYPFTFGPGTKVDIK
modifications: human IgG1 Fc
B2: H1H6765P: anti-PRLR antibody, human IgG1 Fc; HCVR/LCVR SEQ ID NOs 18/26 (antibody, V domains shown)
VH: EVQLVESGGGVVRPGGSLRLSCVGSGFSFDDHGMNWVRQGPGKGLEWVSGFNWNGGSTNYAESVKGRFTISRDNARNSLFLQMNSLRAEDTALYYCVRGRSGWFNDAFDVWGPGTMVTVSS
VL: EIVLTQSPGTLSLSPGERATLSCRASQTINSNYLAWYRQKPGQTPRLLIYGTSSRATGIPDRFSGSGSGTDFSLTISRLEPEDFAVFYCQQYAGLPTFGPGTKVDIK
modifications: human IgG1 Fc
B3: H1H6781P: anti-PRLR antibody, human IgG1 Fc; HCVR/LCVR SEQ ID NOs 50/58 (antibody, V domains shown)
VH: EVQLVESGGDLVQPGESLRLSCTASGFTFNSYEMNWVRQAPGKGLEWVSYISSSGGTKYYVDSVKGRFTISRDNAKKSLYLQMNSLRADDTALYYCARLNGVDVFDIWGQGTMVTVSS
VL: DIQMTQSPSSLSASVGDRVTITCRASQDIFNYLAWFQQKPGKVPELLISAASTLQSGVPSRFSGSGSGTYFTLTISSLQPEDIATYYCQRYNSAPLTFGGGTKVEIK
modifications: human IgG1 Fc
B4: H1H6785P: anti-PRLR antibody, human IgG1 Fc; HCVR/LCVR SEQ ID NOs 98/106 (antibody, V domains shown)
VH: EVQLVESGGGLVQPGGSLRLSCAASGFTFSSYEMNWVRQAPGKGLEWISYISSRGGTIYYADSIKGRFTIYRDNARNSLYLQMNSLRAEDTAIYYCARLSGVDIFDIWGQGTMVTVSS
VL: B3 VL with D28G, F30S, F36Y, E45K, S49Y, A50F, S65G, Y70D, I83V
modifications: human IgG1 Fc
B5: H1H6782P: anti-PRLR antibody, human IgG1 Fc; HCVR/LCVR SEQ ID NOs 66/74; non-blocking (antibody, V domains shown)
VH: EVQLVESGGGLVQPGRSLRLSCAASGFTFDDYAMHWVRQAPGKGLEWVSGIIWNSGHIGYGDSVKGRFTISRDNAKKSLYLQMNSLRAEDTALYYCARDSGRYQSYFDYWGQGTLVTVSS
VL: DIQMTQSPSTLSASVGDRVTITCRASHIISSWLAWYQQKPGKAPKVLIFKASSLESGVPSRFSGSGSGTEFTLTISSLQPDDFATYYCQQYNTYSRTFGQGTKVEIK
modifications: human IgG1 Fc

For one test, the target named is T1, hPRLR.mFc (soluble dimeric human PRLR) (Homo sapiens, UniProt P16471).
T1 construct: dimeric (hPRLR.mFc)
T1 sequence (P16471 with tags, fused parts or gaps): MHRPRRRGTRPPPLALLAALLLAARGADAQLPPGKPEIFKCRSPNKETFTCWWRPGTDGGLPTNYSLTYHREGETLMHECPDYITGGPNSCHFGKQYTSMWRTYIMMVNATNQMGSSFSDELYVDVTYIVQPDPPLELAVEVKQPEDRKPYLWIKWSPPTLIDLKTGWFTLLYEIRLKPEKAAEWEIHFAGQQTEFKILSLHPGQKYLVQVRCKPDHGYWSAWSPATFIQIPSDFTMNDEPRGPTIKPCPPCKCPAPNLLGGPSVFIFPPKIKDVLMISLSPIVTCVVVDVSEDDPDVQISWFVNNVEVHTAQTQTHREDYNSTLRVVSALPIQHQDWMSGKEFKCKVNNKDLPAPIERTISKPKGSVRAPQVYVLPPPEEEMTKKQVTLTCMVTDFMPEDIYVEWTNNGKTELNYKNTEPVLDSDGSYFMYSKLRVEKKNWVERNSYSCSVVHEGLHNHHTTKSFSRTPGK
Put plainly: Surface plasmon resonance (Biacore T200), mAb-capture format. Format: binding. The settings on record: 25° C., antibody-capture format, analyte hPRLR.mFc. The method, then:
(§1) Antibodies, expressed as human IgG1 Fc “[…]” designations), were captured onto an anti-human Fc sensor surface (mAb-capture format), and soluble monomeric (hPRLR.mmh; SEQ ID NO:401, or macaca fascicularis (mf) PRLR.mmh; SEQ ID NO:403) or dimeric (hPRLR.mFc; SEQ ID NO:402) PRLR protein was injected over the sensor surface. Measurements were conducted on a T200 Biacore instrument. Kinetic association (ka) and dissociation (kd) rate constants were determined by processing and fitting the data to a 1:1 binding model using Scrubber 2.0 curve fitting software.
In general terms: Surface plasmon resonance follows binding to a sensor surface in real time, without labels.
Molecule B1 registered a Kd of 0.112 nM and a T½ of 2.15 h.

On to B2, for which the Kd amounted to 0.0392 nM and the T½ was 5.65 h.

Molecule B3 gave a Kd of 0.236 nM and a T½ of 3.18 h.

Regarding B4, the dissociation constant Kd was found to be 0.231 nM and the T½ amounted to 3.17 h.

Take B5: the dissociation constant Kd stood at 0.225 nM and the T½ was determined as 2.7 h.

The test is the same for the next values; noted with them: 37° C., antibody-capture format, analyte hPRLR.mFc.
With B1, binding was characterised by a dissociation constant (Kd) of 0.138 nM and the T½ was 1 h.

Turning to B2, binding was put at a Kd of 0.128 nM and the T½ worked out at 1.87 h.

As to B3, the Kd came out at 0.226 nM and the T½ stood at 1.95 h.

Turning to B4, the equilibrium dissociation constant (Kd) was found to be 0.256 nM and the T½ turned out to be 1.65 h.

As to B5, the dissociation constant (Kd) is 0.217 nM and the T½ is 1.48 h.

In a further test the target is T2, hPRLR.mmh (soluble monomeric human PRLR) (Homo sapiens, UniProt P16471).
T2 construct: soluble monomeric (hPRLR.mmh); mmh (myc-myc-hexahistidine)
T2 sequence (P16471 with tags, fused parts or gaps): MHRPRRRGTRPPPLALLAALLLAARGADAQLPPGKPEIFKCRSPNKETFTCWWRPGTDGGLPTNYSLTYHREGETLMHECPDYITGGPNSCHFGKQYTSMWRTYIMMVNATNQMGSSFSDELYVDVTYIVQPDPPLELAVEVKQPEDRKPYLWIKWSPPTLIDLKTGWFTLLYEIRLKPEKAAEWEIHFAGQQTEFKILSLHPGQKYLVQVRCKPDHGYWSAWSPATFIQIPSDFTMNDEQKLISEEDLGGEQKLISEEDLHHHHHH
The test is described as above. Format: binding. As to conditions: 25° C., antibody-capture format, analyte hPRLR.mmh. As to the method: as §1
Molecule B1 displayed a dissociation constant (Kd) of 1.14 nM and a T½ of 0.233 h.

Molecule B2 had a Kd of 0.124 nM and a T½ of 1.7 h.

As to B3, the affinity, expressed as Kd, was 0.61 nM and the T½ turned out to be 1.52 h.

As to B4, the Kd came to 0.567 nM and the T½ was determined as 1.13 h.

Regarding B5, the dissociation constant Kd stood at 0.685 nM and the T½ was 0.783 h.

Staying with this test, now noted: 37° C., antibody-capture format, analyte hPRLR.mmh.
As to B1, the dissociation constant Kd was 2.95 nM and the T½ amounted to 0.067 h.

Molecule B2 displayed a Kd of 0.292 nM and a T½ of 0.533 h.

For B3, the affinity, expressed as Kd, was 0.91 nM and the T½ came out at 0.617 h.

Take B4: the Kd came out at 1.14 nM and the T½ was 0.4 h.

The molecule B5 came in with a dissociation constant (Kd) of 1.28 nM and a T½ of 0.267 h.

The target in the next test is mfPRLR.mmh (monomeric macaca fascicularis PRLR). The test is described as above. Format: binding. The settings on record: 25° C., antibody-capture format, analyte mfPRLR.mmh. As to the method: as §1
Sequence of mfPRLR.mmh (monomeric macaca fascicularis PRLR) (as listed by the source): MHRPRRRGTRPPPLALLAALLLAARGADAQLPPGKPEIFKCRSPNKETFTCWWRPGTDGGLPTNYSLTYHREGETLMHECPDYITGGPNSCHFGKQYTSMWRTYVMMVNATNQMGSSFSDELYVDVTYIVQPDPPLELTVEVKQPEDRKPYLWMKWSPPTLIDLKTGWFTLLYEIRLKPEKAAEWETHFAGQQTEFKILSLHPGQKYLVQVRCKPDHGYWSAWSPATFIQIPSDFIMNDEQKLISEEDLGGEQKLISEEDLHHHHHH
On to B1, for which the Kd was found to be 1.77 nM and the T½ stood at 0.217 h.

B2 registered an equilibrium dissociation constant (Kd) of 0.254 nM and a T½ of 1.43 h.

Regarding B3, the dissociation constant Kd is 0.986 nM and the T½ amounted to 1.37 h.

Take B4: binding was characterised by a dissociation constant (Kd) of 0.738 nM and the T½ was 1.15 h.

In turn, B5 returned a Kd of 1.05 nM and a T½ of 0.683 h.

Staying with this test, now noted: 37° C., antibody-capture format, analyte mfPRLR.mmh.
As to B1, binding was characterised by a dissociation constant (Kd) of 5 nM and the T½ was 0.05 h.

Regarding B2, the Kd amounted to 0.0504 nM and the T½ was 3.58 h.

B3 returned a dissociation constant Kd of 1.08 nM and a T½ of 0.717 h.

Turning to B4, the Kd came to 1.52 nM and the T½ amounted to 0.433 h.

Regarding B5, the affinity, expressed as Kd, was 1.99 nM and the T½ was 0.25 h.

The next test concerns HEK293/hPRLR/STAT5-Luc cells (human PRLR). Put plainly: STAT5-Luc luciferase reporter assay, blocking of PRL-mediated receptor activation. As to conditions: 5 nM constant PRL, 6 hr at 37° C. Format: cell-based. An excerpt:
The ability of anti-PRLR antibodies to block prolactin (PRL)-mediated receptor activation was examined in a luciferase-based reporter assay. The endocrine hormone PRL binds to the extracellular domain of its cognate receptor PRLR, triggering rapid homodimerization and activating several downstream signaling cascades.
In this example, an engineered cell line was used to determine the ability of anti-PRLR antibodies to block ligand activation of the PRLR receptor. Briefly, HEK293/hPRLR/STAT5-Luc cell lines with stable incorporation of a human PRLR expression cassette and the STAT5-dependent luciferase reporter were generated via sequential rounds of Lipofectamine® 2000-mediated transfection (LifeTechnologies, Carlsbad, Calif.). Cells were selected for at least two weeks in the presence of 500 μg/mL G418 (hPRLR) and 100 μg/mL hygromycin B (STAT5-Luc). The STAT5-Luc assay utilized 2×10^5 HEK293/hPRLR/STAT5-Luc cells seeded in complete growth medium on PDL-coated 96 well plates grown overnight at 37° C., 5% CO2. To generate antibody inhibition curves, cells were incubated (6 hr at 37° C.) with serially diluted anti-human PRLR antibodies (100 nM to 24 pM) in the presence of 5 nM constant PRL before recording signal. PRL dose response curves were generated by the addition of serially diluted PRL (100 nM to 24 pM) to cells and recording signal after a 6 hr (37° C.) incubation in the absence of antibodies. The ability of the antibodies to activate PRLR in the absence of ligand was also assessed.
Luciferase activity was measured with ONE-GLO™ reagent (Promega, Madison, Wis.). Relative light units (RLUs) were measured on a Victor luminometer (Perkin Elmer, Shelton, Conn.). EC50/IC50 values were determined from a four-parameter logistic equation over an 8-point response curve using GraphPad Prism. Percent blocking and percent activation are reported for the highest antibody dose.
On the technique in general: In a reporter assay the amount or activity of a reporter protein is the signal.
B2 yielded an IC50 of 0.033 nM.

Consider B3, for which it took 0.027 nM to reach half-maximal inhibition (IC50).

On to B4, for which the midpoint of inhibition, the IC50, lay at 0.345 nM.

Molecule B5 had an IC50 of more than 100 nM.

Still in this test, the particulars now being: 100 nM antibody, 5 nM PRL.
In the case of B1, the “Percent Blocking at 100 nM Antibody” value is 0%.

Consider B2, for which the “Percent Blocking at 100 nM Antibody” value is 100%.

Regarding B3, the “Percent Blocking at 100 nM Antibody” value is listed as 100%.

For the molecule B4, the “Percent Blocking at 100 nM Antibody” value came out at 100%.

For the molecule B5, the “Percent Blocking at 100 nM Antibody” value is on record as 0%.

A further test deals with T3, PRLR-expressing cells (T47D) (Homo sapiens, UniProt P16471).
T3 construct: a native PRLR expressing cell line (T47D); endogenous in cells; host or cells: T47D
T3 sequence (P16471 25-622): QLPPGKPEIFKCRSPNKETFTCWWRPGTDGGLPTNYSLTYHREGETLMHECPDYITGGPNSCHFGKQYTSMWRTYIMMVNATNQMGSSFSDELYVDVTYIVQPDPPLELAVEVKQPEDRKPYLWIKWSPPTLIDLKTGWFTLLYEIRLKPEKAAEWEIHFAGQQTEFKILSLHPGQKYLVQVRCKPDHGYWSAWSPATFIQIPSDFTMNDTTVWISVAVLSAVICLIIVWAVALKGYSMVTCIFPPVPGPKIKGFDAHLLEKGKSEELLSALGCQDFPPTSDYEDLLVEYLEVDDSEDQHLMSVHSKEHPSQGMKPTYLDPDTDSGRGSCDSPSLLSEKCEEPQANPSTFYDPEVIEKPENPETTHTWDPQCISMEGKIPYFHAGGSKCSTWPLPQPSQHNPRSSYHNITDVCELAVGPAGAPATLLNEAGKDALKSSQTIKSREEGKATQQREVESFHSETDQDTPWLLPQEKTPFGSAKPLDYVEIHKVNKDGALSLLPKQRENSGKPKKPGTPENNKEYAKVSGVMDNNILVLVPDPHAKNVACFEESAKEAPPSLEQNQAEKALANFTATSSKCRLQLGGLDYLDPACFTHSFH
Put plainly: Antibody binding and internalization by PRLR-expressing cells (imaging). Format: cell-based. The settings on record: [mAb] (0.67 nM), alexa488 intensity in intracellular vesicles, 1 h at 37° C. As to the method:
In this Example, the internalization of anti-PRLR antibodies by PRLR-expressing cells (T47D) was assessed. Briefly, 20,000 T47D cells were seeded in collagen coated 96 well plates. […] Cells were then incubated with alexa488 conjugated anti-hFc Fab secondary antibodies for 30 minutes on ice followed by two additional PBS washes. Antibodies were allowed to internalize for 1 h at 37° C. in internalization buffer (PBS+2% FBS) or remained at 4° C. Cells were fixed in 4% formaldehyde, nuclei were stained with DRAQ5 (Cell signaling), and images were acquired on the ImageXpress micro XL (Molecular Devices). Whole cell alexa488 intensity at 37° C. (Binding) and the alexa488 intensity in the intracellular vesicles at 37° C. (Internalization) were determined via Columbus image analysis software (PerkinElmer).
B1: the “% Internalization relative to Control I” value is listed as 162.3%.

On to B2, for which the “% Internalization relative to Control I” value was 186.3%.

As for B3, the “% Internalization relative to Control I” value was found to be 165.1%.

Take B4: the “% Internalization relative to Control I” value came to 169.1%.

As for B5, the “% Internalization relative to Control I” value was determined as 179.3%.

The same test, now with this note: [mAb] (0.67 nM), whole cell alexa488 intensity at 37° C.
Turning to B1, the “% Total Binding relative to Control I” value was 173.7%.

For B2, the “% Total Binding relative to Control I” value was determined as 191.3%.

Turning to B3, the “% Total Binding relative to Control I” value worked out at 166.2%.

As to B4, the “% Total Binding relative to Control I” value is recorded as 168.0%.

As for B5, the “% Total Binding relative to Control I” value came out at 209.9%.
